These are literature values, as cited in patent publication US20090074843A1, “Use of epi-hne 1-4” (priority 2004, published 2009).

For data set [1] the following is noted: chloramineT, up to 50 mol-equivalents.
The target of another data set is Human Serum Plasmin (Homo sapiens, UniProt P00747). Particulars: Human Serum Plasmin vs Elastase.
A further data set has as its target Kallikrein (Homo sapiens, UniProt P03952). The note with it: Human Serum Kallikrein vs Elastase.
The target in the next data set is Thrombin (Homo sapiens, UniProt P00734). The note with it: Human Serum Thrombin vs Elastase.
Another data set has as its target Human Urine Urokinase (Homo sapiens, UniProt P00749). Particulars: Human Urine Urokinase vs Elastase.
Another data set deals with Human Plasma Factor Xa (Homo sapiens, UniProt P00742). Particulars: Human Plasma Factor Xa vs Elastase.
Data set [2] has as its system Human Pancreatic Chymotrypsin. Particulars: Human Pancreatic Chymotrypsin vs Elastase.
Data set [3] deals with T1, human neutrophil elastase (Homo sapiens, UniProt P08246).
T1 sequence (P08246 30-267): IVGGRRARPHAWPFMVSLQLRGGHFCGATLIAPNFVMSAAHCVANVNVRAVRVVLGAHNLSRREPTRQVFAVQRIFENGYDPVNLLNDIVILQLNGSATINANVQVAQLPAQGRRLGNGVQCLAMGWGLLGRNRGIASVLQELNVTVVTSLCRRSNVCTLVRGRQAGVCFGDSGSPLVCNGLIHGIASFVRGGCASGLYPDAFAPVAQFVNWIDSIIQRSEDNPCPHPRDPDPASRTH
Particulars: comparison values.

Human Plasma Factor Xa, sequence (P00742 235-488 limits assumed): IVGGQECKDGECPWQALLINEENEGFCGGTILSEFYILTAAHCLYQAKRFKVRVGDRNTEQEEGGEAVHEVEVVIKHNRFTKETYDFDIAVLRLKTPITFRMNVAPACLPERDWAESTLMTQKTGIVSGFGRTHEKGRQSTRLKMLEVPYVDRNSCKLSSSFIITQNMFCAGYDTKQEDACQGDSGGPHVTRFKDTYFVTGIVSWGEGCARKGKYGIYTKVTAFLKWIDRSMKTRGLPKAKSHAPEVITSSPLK
Human Plasma Factor Xa, sequence (P00742 41-179 partner limits assumed): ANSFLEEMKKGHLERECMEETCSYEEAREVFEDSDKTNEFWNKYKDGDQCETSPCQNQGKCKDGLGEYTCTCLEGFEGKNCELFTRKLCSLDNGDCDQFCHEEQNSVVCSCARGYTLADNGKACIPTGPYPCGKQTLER
Kallikrein, sequence (P03952 391-638 limits assumed): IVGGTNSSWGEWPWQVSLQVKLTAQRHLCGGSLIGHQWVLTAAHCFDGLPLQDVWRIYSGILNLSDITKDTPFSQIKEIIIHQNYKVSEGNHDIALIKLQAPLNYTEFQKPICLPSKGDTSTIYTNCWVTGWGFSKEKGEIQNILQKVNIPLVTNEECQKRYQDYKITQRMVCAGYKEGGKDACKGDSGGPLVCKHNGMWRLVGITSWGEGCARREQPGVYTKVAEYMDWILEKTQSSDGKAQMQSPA
Kallikrein, sequence (P03952 20-390 limits assumed): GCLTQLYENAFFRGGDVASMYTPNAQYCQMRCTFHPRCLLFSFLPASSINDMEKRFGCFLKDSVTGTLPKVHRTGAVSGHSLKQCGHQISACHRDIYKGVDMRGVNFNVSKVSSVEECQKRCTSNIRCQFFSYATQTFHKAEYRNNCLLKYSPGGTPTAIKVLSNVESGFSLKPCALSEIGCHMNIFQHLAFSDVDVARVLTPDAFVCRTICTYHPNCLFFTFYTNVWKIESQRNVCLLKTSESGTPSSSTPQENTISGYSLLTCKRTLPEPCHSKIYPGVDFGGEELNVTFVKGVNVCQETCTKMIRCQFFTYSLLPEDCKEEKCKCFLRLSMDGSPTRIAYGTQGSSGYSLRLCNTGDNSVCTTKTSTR
Human Serum Plasmin, sequence (P00747 581-810 limits assumed): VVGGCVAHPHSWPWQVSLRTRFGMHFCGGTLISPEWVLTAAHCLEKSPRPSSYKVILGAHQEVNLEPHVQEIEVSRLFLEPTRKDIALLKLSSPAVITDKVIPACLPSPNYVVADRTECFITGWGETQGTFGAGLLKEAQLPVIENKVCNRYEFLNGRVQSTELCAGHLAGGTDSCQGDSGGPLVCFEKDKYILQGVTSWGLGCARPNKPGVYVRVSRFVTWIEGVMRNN
Human Serum Plasmin, sequence (P00747 98-580 partner limits assumed): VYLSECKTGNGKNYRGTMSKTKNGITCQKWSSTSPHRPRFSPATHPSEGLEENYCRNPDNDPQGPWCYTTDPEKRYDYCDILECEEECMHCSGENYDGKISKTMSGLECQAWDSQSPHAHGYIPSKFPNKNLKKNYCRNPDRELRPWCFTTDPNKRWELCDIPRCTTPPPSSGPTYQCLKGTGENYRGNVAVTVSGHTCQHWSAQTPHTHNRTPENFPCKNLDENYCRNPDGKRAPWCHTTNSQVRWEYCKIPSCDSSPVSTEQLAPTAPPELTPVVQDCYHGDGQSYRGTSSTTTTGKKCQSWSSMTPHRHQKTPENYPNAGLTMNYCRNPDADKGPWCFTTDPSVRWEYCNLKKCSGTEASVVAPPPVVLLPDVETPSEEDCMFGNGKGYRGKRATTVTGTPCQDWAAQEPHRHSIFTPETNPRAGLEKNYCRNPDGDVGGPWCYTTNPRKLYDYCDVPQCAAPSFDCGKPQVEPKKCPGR

Regarding “AAT: naturally occurring elastase inhibitor, serum protease inhibitor [reference compound]”, the “resistance to oxidation (retention of activity)” value in data set [1] is reported as “destroy the activity”.

With “EPI-HNE4: 56 amino acid protein (SEQ ID NO: 1) derived from second Kunitz type domain of human inter-alpha-inhibitor light chain (ITI-D2); elastase inhibitor (EACNLPIVRGPCIAFFPRWAFDAVKGKCVLFPYGGCQGNGNKFYSEKECREYCGVP; P. pastoris; EPI-HNE4 N-terminal modified to facilitate secretion)”, the “selectivity in Ki values” (in the data set with Human Serum Plasmin; with Kallikrein; with Thrombin; with Human Urine Urokinase; in the data set with Human Plasma Factor Xa; in data set [2]) was “more than 10^6” throughout.

B1: SLPI: naturally occurring elastase inhibitor, serum protease inhibitor (protein, UniProt P03973 26-132, looked up)
Antileukoproteinase: SGKSFKAGVCPPKKSAQCLRYKKPECQSDWQCPGKKRCCPDTCGIKCLDPVDTPNPTRRKPGKCPVTYGQCLMLNPPNFCEMDGQCKRDLKCCMGMCGKSCVSPVKA
As to B1, the Kd (as a rule, the concentration at which binding is half-saturated) in data set [3] was 100 nM. The “resistance to oxidation (retention of activity)” value in data set [1] was “destroy the activity”.
